# Measurements taken from patent US20260159594A1 (UNIVERSITY OF TOKYO, published 2026).
# T1: human IL13RA2 (human, UniProt Q14627 27-380)
# T1 construct: also called interleukin 13 receptor subunit alpha 2; 13R2
# T1 sequence: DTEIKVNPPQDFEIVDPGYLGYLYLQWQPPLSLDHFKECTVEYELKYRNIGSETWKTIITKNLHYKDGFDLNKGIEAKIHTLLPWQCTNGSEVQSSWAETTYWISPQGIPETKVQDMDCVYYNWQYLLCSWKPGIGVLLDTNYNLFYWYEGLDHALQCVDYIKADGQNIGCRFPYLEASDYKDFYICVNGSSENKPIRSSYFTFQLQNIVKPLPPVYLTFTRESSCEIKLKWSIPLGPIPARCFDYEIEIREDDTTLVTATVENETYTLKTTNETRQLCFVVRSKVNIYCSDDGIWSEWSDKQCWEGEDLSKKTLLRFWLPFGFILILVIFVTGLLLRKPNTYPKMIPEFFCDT
# Target: T1, human IL13RA2
# Assay: flow cytometry on U87(+), H1299(+) and RPMI7951 cells; Alexa Fluor 488-labeled anti-mouse IgG secondary antibody
# Procedure: Flow cytometry analysis was carried out using LSRFortessa (BD Biosciences).
binder,measurement,value
"4E6 antibody (antibody, V domains shown, also called anti-IL13RA2 antibody; antibody produced by hybridoma NITE BP-03673) VH: EVKLEESGPGLVAPSQSLSIACTVSGFSLTRHGIHWVRQPPGKNLEWLGVIWAGGSTNYNSALMSRLSIIKDNSKSQVFLKMNSLQTVDTAMYYCARDHFDSFDYWGQGTTLTVSS VL: DIVLTQTPAIMSASLGERVTMTCTASSSVSSSYLHWYQQKPGSSPKLWIYSTSNLASGVPLRFSGSGSGTSYSLTISSMEAEDAATYYCHQYHRSPLTFGAGTKLELKR",binding result,binds
